Data: US20190361012A1 (published 2019)
Each block holds one molecule with its values, some of them ahead of it.

Experiments:
[1] = target: TIA1 protein (recombinant, purchased from Origene) (human) (UniProt P31483); assay: MST self-assembly, labelled TIA1 titrated with non-labeled TIA1, without 2′,3′-cAMP
[2] = target: TIA1 protein (recombinant, purchased from Origene) (human) (UniProt P31483); assay: MST self-assembly, labelled TIA1 titrated with non-labeled TIA1, in the presence of 500 µM 2′,3′-cAMP
[3] = target: FBA6 protein expressed and purified from E. coli (Arabidopsis) (UniProt Q9SJQ9); assay: microscale thermophoresis (MST), FBA6 purified from E. coli
[4] = target: the molecule itself; assay: MST self-assembly, labelled Rbp47b titrated with non-labeled Rbp47b, without 2′,3′-cAMP
Protocol: (§1) MST measurements were performed using a Monolith NT.115 instrument (NanoTemper, München, Germany). Capillaries were loaded into the instrument as sets of 13-16 point ligand titrations. […] Excitation was optimized by varying the LED power to yield emission intensities above 200 AU, corresponding to 10-50 nM labeled protein. Monolith power was set to 60%. Ligands [2′,3′-cAMP (Sigma A9376)] and [3′,5′-cAMP (Sigma A6885)] were dissolved in PBS. 0.5% Tween and premium coated capillaries were used to prevent sticking. […] MO Affinity Analysis software was used to analyze (Kd calculation) and visualize the data. Presented data are from 2-3 technical replicates.

[5] = target: the molecule itself; assay: MST self-assembly, labelled Rbp47b titrated with non-labeled Rbp47b, in the presence of 50 µM 2′,3′-cAMP
Protocol: as §1

Sequence of FBA6 protein expressed and purified from E. coli (Arabidopsis) (Q9SJQ9 whole entry): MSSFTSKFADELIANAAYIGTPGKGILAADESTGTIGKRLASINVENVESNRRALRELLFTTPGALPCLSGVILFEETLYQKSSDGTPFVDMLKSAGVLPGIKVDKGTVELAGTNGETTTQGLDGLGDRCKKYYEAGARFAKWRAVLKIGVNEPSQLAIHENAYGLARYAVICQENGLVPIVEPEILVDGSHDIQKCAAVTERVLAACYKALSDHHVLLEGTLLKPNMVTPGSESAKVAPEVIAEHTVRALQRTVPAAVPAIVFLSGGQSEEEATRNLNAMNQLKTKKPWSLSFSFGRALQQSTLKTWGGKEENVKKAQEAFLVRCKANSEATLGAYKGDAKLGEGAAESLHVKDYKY

Molecule: TIA1 protein (recombinant, purchased from Origene) (from UniProt P31483 1-386)
Kd [1]: 0.0363 µM
Kd [2]: 0.0206 µM

Kd [3]: 0.2 µM
Molecule: L-Gly-L-Pro (peptide)

B1: His6-Rbp47b (other, Arabidopsis)
chain: HHHHHHMQTTNGSDSTLATSGATPPNQQTPPPPQQWQQQQQQQQQWMAAMQYPPAAAMMMMQQQQMLMYPHQYVPYNQGPYQQHHPQLHQYGSYQQHQHQQHKAIDRGSGDDVKTLWVGDLLHWMDETYLHSCFSHTGEVSSVKVIRNKLTSQSEGYGFVEFLSRAAAEEVLQNYSGSVMPNSDQPFRINWASFSTGEKRAVENGPDLSVFVGDLSPDVTDVLLHETFSDRYPSVKSAKVVIDSNTGRSKGYGFVRFGDENERSRALTEMNGAYCSNRQMRVGIATPKRAIANQQQHSSQAVILAGGHGSNGSMGYGSQSDGESTNATIFVGGIDPDVIDEDLRQPFSQFGEVVSVKIPVGKGCGFVQFADRKSAEDAIESLNGTVIGKNTVRLSWGRSPNKQWRGDSGQQWNGGYSRGHGYNNGGGYANHHDSNNYHGEN
modifications: the labelled partner carries RED-NHS (amine reactive) dye; the titrated partner is non-labeled
notes: Cloned as His6-Rbp47b-GFP in E. coli; The fraction that had spontaneously lost GFP (His6-Rbp47b) was used for MST; In the self-assembly assay labelled Rbp47b was titrated with non-labeled Rbp47b; also called Rb47b
Kd [4]: 0.128 µM
Kd [5]: 0.0089 µM
